Molecular target: Catabolite Repressor Activator protein (Cra), wild-type, untagged (E. coli) (UniProt P0ACP1)
Assay: BLI

Sequence of UniProt P0ACP1 (P0ACP1 whole entry): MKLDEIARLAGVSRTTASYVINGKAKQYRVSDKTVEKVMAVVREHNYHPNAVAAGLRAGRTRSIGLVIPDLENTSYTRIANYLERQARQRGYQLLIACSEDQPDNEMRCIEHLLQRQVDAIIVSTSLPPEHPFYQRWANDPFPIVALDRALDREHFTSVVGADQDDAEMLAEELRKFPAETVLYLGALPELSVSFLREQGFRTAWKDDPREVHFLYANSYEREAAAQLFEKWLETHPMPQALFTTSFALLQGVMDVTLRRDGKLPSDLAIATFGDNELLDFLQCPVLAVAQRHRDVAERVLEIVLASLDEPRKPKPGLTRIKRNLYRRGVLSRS

## His-tagged FruK (pET3a) for BLI (from UniProt P0AEW9 1-312) (enzyme)
  Kd: 2.1 nM
